Measured values as given in doi:10.1101/2025.08.07.669073 (bioRxiv, 2025).
Substitutions are numbered along the chain they refer to. Numbers in names are those of the source. Blank lines part the entries; values can stand above or below the molecule they belong to.

What was measured:
[1] = biological target: human ATP13A1 mutated at the border between the membrane region and the ER lumen (human) (UniProt Q9HD20); assay: co-IP
[2] = biological target: yeast EMC with Emc5-GFP, Emc10 deleted (S. cerevisiae) (UniProt P25574); assay: co-IP
[3] = biological target: yeast EMC with Emc5-GFP, Emc7 deleted (S. cerevisiae, UniProt P25574;P47133;P36039;P53073;P40540;Q12431;Q12025); assay: co-IP
yeast EMC with Emc5-GFP, Emc7 deleted, sequence (P25574 25-760, stated change not applied, chain 1 of 4): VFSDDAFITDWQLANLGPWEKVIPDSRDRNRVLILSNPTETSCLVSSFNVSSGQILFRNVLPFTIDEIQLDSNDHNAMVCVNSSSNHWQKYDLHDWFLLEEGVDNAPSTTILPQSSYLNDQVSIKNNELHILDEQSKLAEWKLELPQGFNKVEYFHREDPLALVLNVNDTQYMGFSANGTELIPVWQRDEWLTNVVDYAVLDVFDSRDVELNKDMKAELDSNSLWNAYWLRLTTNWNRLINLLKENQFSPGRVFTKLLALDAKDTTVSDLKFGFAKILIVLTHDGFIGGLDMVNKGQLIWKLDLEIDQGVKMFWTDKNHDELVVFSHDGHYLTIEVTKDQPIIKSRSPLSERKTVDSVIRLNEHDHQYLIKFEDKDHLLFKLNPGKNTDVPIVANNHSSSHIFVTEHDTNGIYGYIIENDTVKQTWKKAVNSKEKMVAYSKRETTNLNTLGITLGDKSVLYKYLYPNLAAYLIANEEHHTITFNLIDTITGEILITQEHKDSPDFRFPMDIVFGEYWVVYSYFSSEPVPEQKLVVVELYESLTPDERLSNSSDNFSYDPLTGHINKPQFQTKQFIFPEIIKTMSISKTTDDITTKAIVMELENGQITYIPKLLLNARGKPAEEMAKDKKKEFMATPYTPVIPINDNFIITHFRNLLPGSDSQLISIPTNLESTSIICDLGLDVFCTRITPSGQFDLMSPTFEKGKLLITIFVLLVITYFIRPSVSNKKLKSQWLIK
yeast EMC with Emc5-GFP, Emc7 deleted, sequence (P47133 whole entry, stated change not applied, chain 2 of 4): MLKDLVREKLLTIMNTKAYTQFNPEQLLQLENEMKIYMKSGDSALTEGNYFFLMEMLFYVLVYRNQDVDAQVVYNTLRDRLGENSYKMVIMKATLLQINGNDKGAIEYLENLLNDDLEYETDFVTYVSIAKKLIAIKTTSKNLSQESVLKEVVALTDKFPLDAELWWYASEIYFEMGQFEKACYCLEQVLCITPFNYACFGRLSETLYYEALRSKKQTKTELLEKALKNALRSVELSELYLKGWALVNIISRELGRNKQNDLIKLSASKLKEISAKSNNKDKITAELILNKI
yeast EMC with Emc5-GFP, Emc7 deleted, sequence (P40540 whole entry, stated change not applied, chain 5 of 4): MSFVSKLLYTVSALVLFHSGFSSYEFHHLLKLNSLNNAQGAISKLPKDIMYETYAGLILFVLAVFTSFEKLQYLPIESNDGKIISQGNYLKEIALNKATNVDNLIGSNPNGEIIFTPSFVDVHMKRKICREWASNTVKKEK
yeast EMC with Emc5-GFP, Emc7 deleted, sequence (Q12431 whole entry, stated change not applied, chain 6 of 4): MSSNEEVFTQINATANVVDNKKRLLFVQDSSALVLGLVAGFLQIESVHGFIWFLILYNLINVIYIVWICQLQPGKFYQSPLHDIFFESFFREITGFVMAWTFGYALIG

[4] = biological target: yeast EMC with Emc5-TSII, recombinant from insect cells (S. cerevisiae) (UniProt P25574); assay: co-IP
[5] = biological target: T1, yeast Spf1-FLAG, recombinant from insect cells (S. cerevisiae, UniProt P39986); assay: cryo-EM structure
T1 sequence: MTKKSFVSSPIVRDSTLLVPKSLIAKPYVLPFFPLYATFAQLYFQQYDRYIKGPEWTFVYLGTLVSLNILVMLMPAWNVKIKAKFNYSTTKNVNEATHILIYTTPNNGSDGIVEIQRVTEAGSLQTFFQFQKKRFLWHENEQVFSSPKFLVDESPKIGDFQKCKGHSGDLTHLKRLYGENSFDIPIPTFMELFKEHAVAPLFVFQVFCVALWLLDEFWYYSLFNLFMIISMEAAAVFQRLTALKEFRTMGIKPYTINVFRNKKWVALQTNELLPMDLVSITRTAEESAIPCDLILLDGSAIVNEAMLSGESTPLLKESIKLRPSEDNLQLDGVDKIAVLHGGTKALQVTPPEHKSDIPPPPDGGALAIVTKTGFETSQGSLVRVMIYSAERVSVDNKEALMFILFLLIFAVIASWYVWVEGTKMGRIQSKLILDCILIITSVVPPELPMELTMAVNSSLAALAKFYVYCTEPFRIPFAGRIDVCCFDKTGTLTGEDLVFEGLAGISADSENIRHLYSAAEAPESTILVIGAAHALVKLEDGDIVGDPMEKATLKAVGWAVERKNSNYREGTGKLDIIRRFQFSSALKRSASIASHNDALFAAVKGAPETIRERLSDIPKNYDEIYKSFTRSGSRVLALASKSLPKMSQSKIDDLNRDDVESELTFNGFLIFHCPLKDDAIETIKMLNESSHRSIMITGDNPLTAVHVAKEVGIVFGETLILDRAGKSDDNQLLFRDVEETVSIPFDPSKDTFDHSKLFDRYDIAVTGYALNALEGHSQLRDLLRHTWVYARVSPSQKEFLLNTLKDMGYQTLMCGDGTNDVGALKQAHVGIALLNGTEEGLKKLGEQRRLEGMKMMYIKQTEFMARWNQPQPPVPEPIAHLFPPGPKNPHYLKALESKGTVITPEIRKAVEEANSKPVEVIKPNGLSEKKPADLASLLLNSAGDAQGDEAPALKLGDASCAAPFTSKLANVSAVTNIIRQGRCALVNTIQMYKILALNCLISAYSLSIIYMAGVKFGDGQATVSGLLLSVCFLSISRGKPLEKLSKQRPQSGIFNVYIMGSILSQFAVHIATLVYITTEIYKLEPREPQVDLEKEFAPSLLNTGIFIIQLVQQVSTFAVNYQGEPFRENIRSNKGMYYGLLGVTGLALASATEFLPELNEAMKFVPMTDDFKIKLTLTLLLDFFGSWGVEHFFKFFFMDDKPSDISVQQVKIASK

human ATP13A1 mutated at the border between the membrane region and the ER lumen (human), sequence (Q9HD20 whole entry, stated change not applied): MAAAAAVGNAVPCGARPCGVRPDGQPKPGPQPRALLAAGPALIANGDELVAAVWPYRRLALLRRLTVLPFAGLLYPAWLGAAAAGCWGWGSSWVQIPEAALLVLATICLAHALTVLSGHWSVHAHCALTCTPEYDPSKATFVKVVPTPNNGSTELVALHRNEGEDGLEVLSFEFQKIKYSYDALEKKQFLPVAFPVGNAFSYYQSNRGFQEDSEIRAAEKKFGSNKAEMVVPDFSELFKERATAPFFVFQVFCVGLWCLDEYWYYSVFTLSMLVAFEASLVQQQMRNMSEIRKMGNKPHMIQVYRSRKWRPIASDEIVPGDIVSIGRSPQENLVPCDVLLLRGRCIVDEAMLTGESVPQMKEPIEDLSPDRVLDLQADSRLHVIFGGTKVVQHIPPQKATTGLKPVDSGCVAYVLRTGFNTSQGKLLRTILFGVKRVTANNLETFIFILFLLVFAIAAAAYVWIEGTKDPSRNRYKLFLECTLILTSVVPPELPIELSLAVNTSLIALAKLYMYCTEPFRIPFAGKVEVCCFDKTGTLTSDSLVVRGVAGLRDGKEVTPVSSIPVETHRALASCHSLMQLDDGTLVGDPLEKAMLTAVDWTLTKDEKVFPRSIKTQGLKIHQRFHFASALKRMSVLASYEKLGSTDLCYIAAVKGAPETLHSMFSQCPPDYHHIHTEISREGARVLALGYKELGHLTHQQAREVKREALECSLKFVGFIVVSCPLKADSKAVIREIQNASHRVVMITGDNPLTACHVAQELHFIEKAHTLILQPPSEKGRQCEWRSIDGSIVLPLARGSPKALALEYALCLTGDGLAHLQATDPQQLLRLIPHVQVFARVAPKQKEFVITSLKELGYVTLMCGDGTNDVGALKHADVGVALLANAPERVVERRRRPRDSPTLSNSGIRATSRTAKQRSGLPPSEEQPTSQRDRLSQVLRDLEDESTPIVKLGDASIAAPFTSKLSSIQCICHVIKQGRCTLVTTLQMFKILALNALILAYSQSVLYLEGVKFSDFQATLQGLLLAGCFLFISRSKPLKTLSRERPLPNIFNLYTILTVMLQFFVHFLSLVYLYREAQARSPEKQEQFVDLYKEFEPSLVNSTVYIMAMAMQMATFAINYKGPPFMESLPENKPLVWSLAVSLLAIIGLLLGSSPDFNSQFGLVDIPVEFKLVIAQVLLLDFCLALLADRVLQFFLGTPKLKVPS

B1: Spf1 with C-terminal triple HA-tag, endogenous locus, S. cerevisiae (natural protein)
chain: T1 sequence
Spf1 to Emc5 ratio in the IP, percent of wt [2]: 48% | Spf1 to Emc5 ratio in the IP, percent of wt [3]: 40%

B3: yeast Emc3, subunit in the recombinant EMC:Spf1 complex (natural protein)
chain: MLLDDQLKYWVLLPISIVMVLTGVLKQYIMTLITGSSANEAQPRVKLTEWQYLQWAQLLIGNGGNLSSDAFAAKKEFLVKDLTEERHLAKAKQQDGSQAGEVPNPFNDPSMSNAMMNMAKGNMASFIPQTIIMWWVNHFFAGFILMQLPFPLTAKFKEMLQTGIICQDLDVRWVSSISWYFISVLGLNPVYNLIGLNDQDMGIQAGIGGPQGPQGPPQSQVDKAMHAMANDLTIIQHETCLDNVEQRVLKQYM
binding result [5]: binds

B4: yeast Emc10, subunit in the recombinant EMC:Spf1 complex (natural protein)
chain: ADILQLSYSDDAKDAIPLGTFEIDSTSDGNVTVTTVNIQDVEVSGEYCLNAQIEGKLDMPCFSYMKLRTPLKYDLIVDVDEDNEVKQVSLSYDETNDAITATVRYPEAGPTAPVTKLKKKTKTYADKKASKNKDGSTAQFEEDEEVKEVSWFQKNWKMLLLGLLIYNFVAGSAKKQQQGGAGADQKTE
binding result [5]: binds

B5: yeast Emc4, subunit in the recombinant EMC:Spf1 complex (natural protein)
chain: MSEQEPYEWAKHLLDTKYIEKYNIQNSNTLPSPPGFEGNSSKGNVTRKQQDATSQTTSLAQKNQITVLQVQKAWQIALQPAKSIPMNIFMSYMSGTSLQIIPIMTALMLLSGPIKAIFSTRSAFKPVLGNKATQSQVQTAMFMYIVFQGVLMYIGYRKLNSMGLIPNAKGDWLPWERIAHYNNGLQWFSD
binding result [5]: binds

The remaining lines, values ahead:

interaction with the hEMC relative to wt [1]: 0.5 of wt
Molecule: human EMC, endogenous, HEK293T (from UniProt Q8N766;Q15006;Q9P0I2;Q5J8M3;Q8N4V1;Q9BV81;Q9NPA0;O43402;Q5UCC4) (complex)

EMC:Spf1 interaction, percent of wt [4]: 30%
B2: yeast Spf1 E1087A, recombinant from insect cells (natural protein)
chain: T1 sequence with E1087A
